The source of these data is EP4786492A1 (Simcere Zaiming Pharmaceutical Co., Ltd., dated 2026).

The target in assay [1] is T1, human DLL3-his protein (human, UniProt Q9NYJ7 27-492).
T1 construct: also called human DLL3 protein; DLL3 antigen protein; not shown: His tag
T1 sequence: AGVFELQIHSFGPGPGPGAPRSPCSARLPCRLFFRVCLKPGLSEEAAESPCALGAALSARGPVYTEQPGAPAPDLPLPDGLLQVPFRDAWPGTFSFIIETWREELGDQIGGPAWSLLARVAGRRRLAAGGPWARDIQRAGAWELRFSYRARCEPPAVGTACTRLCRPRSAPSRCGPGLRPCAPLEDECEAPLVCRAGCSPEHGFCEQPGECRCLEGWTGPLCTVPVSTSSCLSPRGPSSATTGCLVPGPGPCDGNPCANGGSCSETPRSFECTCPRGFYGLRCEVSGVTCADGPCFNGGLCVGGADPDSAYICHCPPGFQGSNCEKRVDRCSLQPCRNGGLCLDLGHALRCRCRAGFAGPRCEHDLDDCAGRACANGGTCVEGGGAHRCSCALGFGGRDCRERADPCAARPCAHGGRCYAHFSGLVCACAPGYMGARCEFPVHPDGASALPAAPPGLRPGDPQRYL
Briefly: SPR Biacore 8K, antibody captured on Protein A.

The target in the next assay is T2, human DLL1 protein (human, UniProt O00548 18-540, limits assumed).
T2 construct: bought protein; construct and tag not described; also called hDLL1
T2 sequence (looked up): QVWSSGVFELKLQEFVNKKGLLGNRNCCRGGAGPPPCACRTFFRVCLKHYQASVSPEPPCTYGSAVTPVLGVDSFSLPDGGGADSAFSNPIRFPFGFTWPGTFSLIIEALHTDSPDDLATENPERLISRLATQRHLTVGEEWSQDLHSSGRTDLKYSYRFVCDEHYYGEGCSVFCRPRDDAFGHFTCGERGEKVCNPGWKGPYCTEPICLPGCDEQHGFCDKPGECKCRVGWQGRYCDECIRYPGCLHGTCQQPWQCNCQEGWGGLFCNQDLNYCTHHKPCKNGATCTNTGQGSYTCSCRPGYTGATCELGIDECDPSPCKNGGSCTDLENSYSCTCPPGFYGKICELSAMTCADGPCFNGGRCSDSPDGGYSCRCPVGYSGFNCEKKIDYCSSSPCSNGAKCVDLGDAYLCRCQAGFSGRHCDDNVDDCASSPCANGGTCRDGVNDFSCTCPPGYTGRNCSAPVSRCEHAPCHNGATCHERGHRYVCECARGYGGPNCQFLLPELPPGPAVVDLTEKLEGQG
Briefly: ELISA, maximum over 0.1-100 nM.

The target in the next assay is T3, human DLL4 protein (human, UniProt Q9NR61 27-524, limits assumed).
T3 construct: bought protein; construct and tag not described; also called hDLL4
Briefly: ELISA, maximum over 0.1-100 nM.

Assay [2] deals with T1, human DLL3-his protein. Briefly: ELISA.
Assay [3] addresses T4, monkey DLL3 on CHO K1-cyno DLL3 cells (cynomolgus monkey).
T4 construct: also called monkey DLL3 recombinant cell line
T4 chain: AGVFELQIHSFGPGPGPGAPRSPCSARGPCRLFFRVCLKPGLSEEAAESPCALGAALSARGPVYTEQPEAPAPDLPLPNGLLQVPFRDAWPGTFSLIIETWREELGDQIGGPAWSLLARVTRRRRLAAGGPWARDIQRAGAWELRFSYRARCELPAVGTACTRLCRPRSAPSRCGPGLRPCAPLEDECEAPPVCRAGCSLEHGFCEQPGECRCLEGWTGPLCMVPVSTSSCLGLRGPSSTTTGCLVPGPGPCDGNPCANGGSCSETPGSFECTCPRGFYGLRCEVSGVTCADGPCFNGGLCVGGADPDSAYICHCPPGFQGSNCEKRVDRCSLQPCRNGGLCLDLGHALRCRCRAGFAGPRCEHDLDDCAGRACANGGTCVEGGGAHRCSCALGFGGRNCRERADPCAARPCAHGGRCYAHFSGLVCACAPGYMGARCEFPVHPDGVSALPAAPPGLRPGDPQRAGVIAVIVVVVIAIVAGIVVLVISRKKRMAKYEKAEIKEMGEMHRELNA
Briefly: FACS, CHO K1-cyno DLL3 cells.

The target in assay [4] is T5, human DLL3 protein (extracellular segment, His tag) (human, UniProt Q9NYJ7 27-492).
T5 construct: also called human DLL3-his protein; DLL3 antigen; not shown: His tag
T5 sequence: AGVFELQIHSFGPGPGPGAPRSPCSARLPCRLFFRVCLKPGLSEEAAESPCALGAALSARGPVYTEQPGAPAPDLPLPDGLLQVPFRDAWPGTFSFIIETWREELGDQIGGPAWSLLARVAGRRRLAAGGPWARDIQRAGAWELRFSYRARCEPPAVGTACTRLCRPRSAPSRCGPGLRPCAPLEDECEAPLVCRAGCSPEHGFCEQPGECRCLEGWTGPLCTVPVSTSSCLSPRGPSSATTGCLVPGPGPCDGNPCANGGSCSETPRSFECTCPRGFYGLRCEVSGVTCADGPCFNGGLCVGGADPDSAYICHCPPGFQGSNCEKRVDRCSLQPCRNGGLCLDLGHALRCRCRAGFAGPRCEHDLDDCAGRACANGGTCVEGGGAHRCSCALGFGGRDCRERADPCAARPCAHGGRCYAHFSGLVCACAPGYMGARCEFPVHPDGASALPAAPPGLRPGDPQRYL
Briefly: SPR (Biacore 8K), antibody captured on Protein A chip, DLL3 antigen in solution, 1:1 Langmuir fit.

A further assay deals with T6, monkey DLL3-his protein (cynomolgus monkey, UniProt Q9NYJ7 27-490 (human entry)).
T6 construct: a bought cynomolgus DLL3-His (Acro DL3-C52H3) is also named; also called monkey DLL3 protein; cynomolgus monkey DLL3-His; not shown: His tag
T6 chain: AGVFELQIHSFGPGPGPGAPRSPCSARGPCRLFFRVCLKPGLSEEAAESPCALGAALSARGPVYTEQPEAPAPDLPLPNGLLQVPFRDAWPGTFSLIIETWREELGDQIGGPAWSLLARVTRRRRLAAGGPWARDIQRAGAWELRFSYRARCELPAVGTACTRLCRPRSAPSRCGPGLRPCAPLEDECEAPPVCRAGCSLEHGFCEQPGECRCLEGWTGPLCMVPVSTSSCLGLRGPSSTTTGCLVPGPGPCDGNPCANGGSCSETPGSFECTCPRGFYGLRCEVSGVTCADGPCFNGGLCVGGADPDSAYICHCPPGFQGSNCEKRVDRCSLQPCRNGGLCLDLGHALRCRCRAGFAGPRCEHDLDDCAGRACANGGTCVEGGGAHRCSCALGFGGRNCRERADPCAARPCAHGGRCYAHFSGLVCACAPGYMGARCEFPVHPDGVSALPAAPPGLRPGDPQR
Briefly: ELISA, coated DLL3-his.

For assay [5], the target named is T1, human DLL3-his protein. As to the kind of experiment: ELISA, coated DLL3-his.

T3 sequence (Q9NR61 27-524 limits assumed): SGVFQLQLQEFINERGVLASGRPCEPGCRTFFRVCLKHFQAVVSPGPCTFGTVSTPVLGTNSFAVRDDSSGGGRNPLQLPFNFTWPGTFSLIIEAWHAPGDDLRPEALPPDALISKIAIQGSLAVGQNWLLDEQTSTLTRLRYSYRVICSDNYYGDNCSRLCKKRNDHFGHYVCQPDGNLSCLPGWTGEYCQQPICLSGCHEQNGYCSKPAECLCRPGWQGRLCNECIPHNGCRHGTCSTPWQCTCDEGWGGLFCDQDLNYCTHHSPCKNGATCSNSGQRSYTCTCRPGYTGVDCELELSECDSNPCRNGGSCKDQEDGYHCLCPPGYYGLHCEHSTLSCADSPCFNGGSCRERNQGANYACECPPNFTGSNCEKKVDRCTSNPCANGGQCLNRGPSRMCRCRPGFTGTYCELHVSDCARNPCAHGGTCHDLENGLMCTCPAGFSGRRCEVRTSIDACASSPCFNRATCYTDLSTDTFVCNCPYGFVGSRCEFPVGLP

B1: Hab015VL4VH6b-hFc (Fc fusion)
scFv (part 1 of 2): NIVLTQSPATLSLSPGERATLSCKASENVGTYVSWFQQKPGQSPRLLIYGASNRYTGIPARFSGSGSGTDFTLTISSLEPEDFAVYYCGQFYSFPSTFGGGTKVEIK
scFv (part 2 of 2): EVQLVESGGGLVKPGGSLRLSCAASGITFSNFWMNWVRQAPEKGLEWVGQIRLKSDQYATHYAESVKGRFTISREDSKNTVYLQMNSLKTEDTAVYYCTTGYYFDYWGQGTTVTVSS
notes: humanized mab015, VL-linker-VH-human IgG1 Fc; also called Hab015L4H6b; not shown: linker; human IgG1 Fc fragment
Consider B1, for which the binding result with human DLL3-his protein [1] was “binds”.

B2: mab005 scFv-hFc (Fc fusion)
scFv (part 1 of 2): DIVLTQSPATLSVTPGDSVSLSCRASQSVSNDLHWYQQKSHESPRLLIKYASQSISGIPSRFSGSGSGTDFTLTINSVETEDFGMYFCQQSNNWPYTFGGGTKLEMK
scFv (part 2 of 2): QVQLQQSGAELMKPGASVTLSCKATGYTLPGYWIEWVKQRPGHGLEWIGEILPGSSSANYNEKFKGKATFTADTSSNTAYMQLSSLTTEDSAIYYCASTYGTSLDYWGQGTTLTVSS
notes: human-murine chimeric scFv-hFc, VL-linker-VH-human IgG1 Fc; not shown: linker; Fc fragment of human IgG1
Turning to B2, the “Emax of OD450 nm binding value” with human DLL1 protein worked out at 0.05 OD450; with human DLL4 protein it was 0.04 OD450. Further, the binding result (with human DLL3-his protein [2]; in assay [3]) was “binds” each time.

B3: BI3 (antibody, human IgG1, kappa, V domains shown)
VH: QVQLVQSGAEVKKPGASVKVSCKASGYTFTSYYVHWVRQAPGQGLEWMVIINPGGGTTSYAQKFLGRVTMTRDTSTNTVYMELKSLRSEDTAVYYCARGEAVTGNYFYYGMDVWGQGTTVTVSS
VL: DIQMTQSPSAMSASVGDRVTITCRASQGISNYLVWFQQKPGKAPKRLIYAVSSLYSGVPSRFSGSGSGTEFTLTISSLQPEDFATYYCLQHDSYPYTFGQGTKLEIKR
notes: control antibody in complete IgG format, variable regions from WO2019234220A1
As for B3, in assay [4], the Kd is 0.0497 nM, the koff was 4.7e-05 s⁻¹ and the kon amounted to 945000 M⁻¹ s⁻¹.

B4: BI3 (antibody, human IgG1, kappa, V domains shown)
VH: QVQLVQSGAEVKKPGASVKVSCKASGYTFTSYYVHWVRQAPGQGLEWMVIINPGGGTTSYAQKFLGRVTMTRDTSTNTVYMELKSLRSEDTAVYYCARGEAVTGNYFYYGMDVWGQGTTVTVSS
VL: DIQMTQSPSAMSASVGDRVTITCRASQGISNYLVWFQQKPGKAPKRLIYAVSSLYSGVPSRFSGSGSGTEFTLTISSLQPEDFATYYCLQHDSYPYTFGQGTKLEIKR
notes: expressed in the complete IgG format; variable regions from WO2019234220A1; also called control antibody
Regarding B4, in the assay with monkey DLL3-his protein, the binding result is given as “binds”.

B5: mab006 scFv-hFc (Fc fusion)
scFv (part 1 of 2): DVQITQSPSYLAASPGETITINCRATKSISKYLAWYQEKPGKTNKLLIFSGSTLQSGIPSRFRGSGSGTDFTLTISSLEPEDFAMYYCQQHHEYPYTFGGGTKLEIK
scFv (part 2 of 2): QVQLQQPGAELVRPGTSVKLSCKASGYTFTSYWMHWVRQRPGQGLEWIGVIDPSDSLANYNQEFKGKATLTVDTSSSTAYMQLSSLTSEDSAVYYCARDSTVVAPMDYWGQGTSVTVSS
notes: as for B2
In the case of B5, the “Emax of OD450 nm binding value” with human DLL1 protein stood at 0.08 OD450; with human DLL4 protein, 0.07 OD450. Also, the binding result (with human DLL3-his protein [2]; in assay [3]) was “binds” each time.

B6: mab007 scFv-hFc (Fc fusion)
scFv (part 1 of 2): DVQITQSPSYLAASPGETITINCRASTSISKYLAWYQERPGKTNKLLIYSGSTLQSGIPSRFRGSGSGTDFTLTISSLEPEDFAMYYCQQHHVYPYTFGGGTKLEIK
scFv (part 2 of 2): QVQLQQPGAELVRPGTSVKLSCKASGYTFTSYWMHWVKQRPGQGLEWIGVIDPSDSLANYNQEFKGKATLTVDTSSSTAYMQLSSLTSEDSAVYYCARDSTVVAPMDYWGQGTSVTVSS
notes: as for B2
Consider B6, for which the “Emax of OD450 nm binding value” amounted to 0.07 OD450 in the assay with human DLL1 protein and 0.06 OD450 with human DLL4 protein. Also, the binding result (in the assay with human DLL3-his protein [2]; in assay [3]) was “binds” in each case.

B7: mab012 scFv-hFc (Fc fusion)
scFv (part 1 of 2): DVLMTQTPLSLPVSLGDQASISCRSSQSIVHSDGNTYLEWYLQKPGQSPKLLIYKVSNRFSGVPDRFSGSGSGTDFTLKISRVEAEDLGFYYCFQGSHVPFTFGSGTKLEIK
scFv (part 2 of 2): QVQLQQSGPELVKPGASVKISCKASGYTFTDYYIHWVKQRPGQGLEWIGWTLPGSGSPYYNEKFKGKATLTVDKSSSTAYMLLSSLTSEDSAVYFCARWHYYYGSSYHFDYWGQGTTLTVSS
notes: as for B2
B7: the “Emax of OD450 nm binding value” in the assay with human DLL1 protein and with human DLL4 protein was 0.08 OD450 throughout. Also, the binding result (in the assay with human DLL3-his protein [2]; in assay [3]) was “binds” each time.

B8: SC16.56 (antibody, human IgG1, kappa, V domains shown)
VH: QVQLVQSGAEVKKPGASVKVSCKASGYTFTNYGMNWVRQAPGQGLEWMGWINTYTGEPTYADDFKGRVTMTTDTSTSTAYMELRSLRSDDTAVYYCARIGDSSPSDYWGQGTLVTVSS
VL: EIVMTQSPATLSVSPGERATLSCKASQSVSNDVVWYQQKPGQAPRLLIYYASNRYTGIPARFSGSGSGTEFTLTISSLQSEDFAVYYCQQDYTSPWTFGQGTKLEIKR
notes: expressed in the complete IgG format; variable regions from US20200138969A1; also called control antibody
For the molecule B8, the binding result with monkey DLL3-his protein and in the assay with human DLL3-his protein [5] was “binds” each time.

B9: mab008 scFv-hFc (Fc fusion)
scFv (part 1 of 2): DIVMTQSQKFMSTSVGDRVSITCKASQNVGTAVAWYQQKPGQSPKLLIFSASIRYTGVPDRFTGSGSGTDFTLTISNMQSEDLADYFCQQYSSSPYTFGGGTKLEIK
scFv (part 2 of 2): EVQLQQSGPVLVKPGASVKMSCKASGYTFTDYYMNWVKRSHGKSLEWIGIINPYNGGTSYNQKFRGKATLTVDKSSNTAYMELNSLTSEDSAVYYCSRYDYDYDVEGAMDYWGQGTSVTVSS
notes: as for B2
For the molecule B9, the “Emax of OD450 nm binding value” with human DLL1 protein was determined as 0.09 OD450; with human DLL4 protein, 0.08 OD450. Also, the binding result (with human DLL3-his protein [2]; in assay [3]) was “binds” throughout.

B10: mab014 scFv-hFc (Fc fusion)
scFv (part 1 of 2): DIQMTQSSSSFSVSLGDRVTITCKASEDIYNRLAWYQQKPGNTPRLLISGATSLETGVPSRFSGSGSGKDFTLSITSLQTEDVATYYCQQYWSLPWTFGGGTKLEIK
scFv (part 2 of 2): EVQLHQSGPELVKPGTSVKISCKASGYTFTDYYMNWVKQSHGKSLEWIGDINPNHGDTGYNQKFTGKATLTVDKSSSTAYMELRSLTSEDSAVYYCARNFFYYGTTYGWYFDVWGTGTTVTVSS
notes: as for B2
With B10, the “Emax of OD450 nm binding value” turned out to be 0.08 OD450 with human DLL1 protein and 0.06 OD450 with human DLL4 protein. Also, the binding result (with human DLL3-his protein [2]; in assay [3]) was “binds” each time.
